Patent US5543308

Key:
[1] = test system: FseI restriction endonuclease (from pRMFseR1, NEB#918, His at position 2) T2H (Frankia species NRRL 18528); experiment: cleavage_in_vitro; settings: crude extract, NEBuffer 1, 30 C, 1 h; estimated titer
[2] = test system: FseI restriction endonuclease (from pRMFseR2, NEB#943, ATCC 69707) (Frankia species NRRL 18528); experiment: cleavage_in_vitro; settings: crude extract; estimated titer; substrate inferred from section 7

Substance: Adenovirus-2 DNA
- activity (units/g cells) [1]: > 10000
- activity (units/g cells) [2]: > 10000
